# Target: FKBP12-rapamycin binding domain of mTOR (FRB)
substance,measurement,value
FK506 binding protein (FKBP) (from UniProt P62942 1-108) (natural protein),"bioluminescence of the single-chain molecular strain probe F-R86SG-F (FRB-RLuc86SG-FKBP) in COS-7 cells, 10^-6 M rapamycin for 5 h against vehicle (0.1% DMSO), substrate K5; fold intensity",1.6 fold
same,"bioluminescence of the single-chain molecular strain probe F-R86SG-F (FRB-RLuc86SG-FKBP) in COS-7 cells, 10^-6 M rapamycin for 5 h against vehicle (0.1% DMSO), substrate K6; fold intensity",3.1 fold
